Test results from patent US20110195900A1, “PEPTIDIC PTH RECEPTOR AGONISTS” (FERRING B.V., priority 2008, published 2011).
Starred links: 1 amine or outer side, 2 acyl side, 3 side chain; linkers in the order of their positions; H or OH if unused. Non-standard residues stand in square brackets, D forms with d. No end group written: not given here. hSer(OMe) = COCC[C@H](N[*:1])C(=O)[*:2]; 1Nal = N[C@@H](Cc1cccc2ccccc12)C(=O)O; β3hI = CC[C@H](C)[C@H](N)CC(=O)O; β3hR = N=C(N)NCCC[C@H](N)CC(=O)O; β3hF = N[C@H](CC(=O)O)Cc1ccccc1; β3hK = NCCCC[C@H](N)CC(=O)O; Nle = CCCC[C@H](N)C(=O)O; Aib = CC(C)(N)C(=O)O; βAla = NCCC(=O)O

B1: [Aib^1, Nle^8, β-Ala^17, hSer(OMe)^18, 1-Nal^23, Leu^27] hPTH (1-34)-NH2 (peptide)
peptide: [Aib]VSEIQL[Nle]HNLGKHLN[βAla][hSer(OMe)]ERVE[1Nal]LRKLLQDVHNF-NH2
B2: [Aib^1, Nle^8, Ser^10, Lys^16, β-hIle^18, 1-Nal^23, Leu^27, Arg^30] hPTH (1-31)-NH2 (peptide)
peptide: [Aib]VSEIQL[Nle]HSLGKHLKS[β3hI]ERVE[1Nal]LRKLLQRV-NH2
B3: [Aib^1, Nle^8, β-hIle^18, 1-Nal^23, Leu^27] hPTH (1-34)-NH2 (peptide)
peptide: [Aib]VSEIQL[Nle]HNLGKHLNS[β3hI]ERVE[1Nal]LRKLLQDVHNF-NH2
B4: [Nle^8, β-hIle^18, 1-Nal^23, Leu^27, Glu^34] hPTH (1-34)-NH2 (peptide)
peptide: SVSEIQL[Nle]HNLGKHLNS[β3hI]ERVE[1Nal]LRKLLQDVHNE-NH2
B5: [Nle^8, β-hPhe^18, 1-Nal^23, Leu^27] hPTH (1-34)-NH2 (peptide)
peptide: SVSEIQL[Nle]HNLGKHLNS[β3hF]ERVE[1Nal]LRKLLQDVHNF-NH2
B6: [Nle^8, Ser^10, Lys^16, β-hIle^18, 1-Nal^23, Leu^27, Arg^30, Glu^33] hPTH(1-34)-NH2 (peptide)
peptide: SVSEIQL[Nle]HSLGKHLKS[β3hI]ERVE[1Nal]LRKLLQRVHEF-NH2
B7: [Aib^1, Nle^8, Lys^16, β-hIle^18, 1-Nal^23, Leu^27, Arg^30, Glu^33] hPTH (1-34)-NH2 (peptide)
peptide: [Aib]VSEIQL[Nle]HNLGKHLKS[β3hI]ERVE[1Nal]LRKLLQRVHEF-NH2
B8: [Nle^8, β-hIle^18, 1-Nal^23, Leu^27, Glu^33] hPTH (1-34)-NH2 (peptide)
peptide: SVSEIQL[Nle]HNLGKHLNS[β3hI]ERVE[1Nal]LRKLLQDVHEF-NH2
B9: [Aib^1, Nle^8, β-hPhe^17, hSer(OMe)^18, 1-Nal^23, Leu^27] hPTH-(1-34)-NH2 (peptide)
peptide: [Aib]VSEIQL[Nle]HNLGKHLN[β3hF][hSer(OMe)]ERVE[1Nal]LRKLLQDVHNF-NH2
B10: [Aib^1, Nle^8, Ser^10, Lys^16, β-hIle^18, 1-Nal^23, Leu^27, Arg^30, Glu^33] hPTH (1-34)-NH2 (peptide)
peptide: [Aib]VSEIQL[Nle]HSLGKHLKS[β3hI]ERVE[1Nal]LRKLLQRVHEF-NH2
B11: [Nle^8, Aib^12, β-hIle^18, 1-Nal^23, Leu^27] hPTH (1-34)-NH2 (peptide)
peptide: SVSEIQL[Nle]HNL[Aib]KHLNS[β3hI]ERVE[1Nal]LRKLLQDVHNF-NH2
B12: [Nle^8, Ser^10, Lys^16, β-hIle^18, 1-Nal^23, Leu^27, Arg^30, Glu^33, Glu^34] hPTH (1-34)-NH2 (peptide)
peptide: SVSEIQL[Nle]HSLGKHLKS[β3hI]ERVE[1Nal]LRKLLQRVHEE-NH2
B13: [Aib^1, Nle^8, hSer(OMe)^18, β-hLys^19, 1-Nal^23, Leu^27] hPTH (1-$$4)-NH2 (peptide)
peptide: [Aib]VSEIQL[Nle]HNLGKHLNS[hSer(OMe)][β3hK]RVE[1Nal]LRKLLQDVHNF-NH2
modifications: N-terminus assumed
SMILES: CCCC[C@H](NC(=O)[C@H](CC(C)C)NC(=O)[C@H](CCC(N)=O)NC(=O)[C@@H](NC(=O)[C@H](CCC(=O)O)NC(=O)[C@H](CO)NC(=O)[C@@H](NC(=O)C(C)(C)N)C(C)C)[C@@H](C)CC)C(=O)N[C@@H](Cc1c[nH]cn1)C(=O)N[C@@H](CC(N)=O)C(=O)N[C@@H](CC(C)C)C(=O)NCC(=O)N[C@@H](CCCCN)C(=O)N[C@@H](Cc1c[nH]cn1)C(=O)N[C@@H](CC(C)C)C(=O)N[C@@H](CC(N)=O)C(=O)N[C@@H](CO)C(=O)N[C@@H](CCOC)C(=O)N[C@@H](CCCCN)CC(=O)N[C@@H](CCCNC(=N)N)C(=O)N[C@H](C(=O)N[C@@H](CCC(=O)O)C(=O)N[C@@H](Cc1cccc2ccccc12)C(=O)N[C@@H](CC(C)C)C(=O)N[C@@H](CCCNC(=N)N)C(=O)N[C@@H](CCCCN)C(=O)N[C@@H](CC(C)C)C(=O)N[C@@H](CC(C)C)C(=O)N[C@@H](CCC(N)=O)C(=O)N[C@@H](CC(=O)O)C(=O)N[C@H](C(=O)N[C@@H](Cc1c[nH]cn1)C(=O)N[C@@H](CC(N)=O)C(=O)N[C@@H](Cc1ccccc1)C(N)=O)C(C)C)C(C)C
B14: [Nle^8, β-hIle^18, 1-Nal^23, Leu^27, His^30] hPTH (1-34)-NH2 (peptide)
peptide: SVSEIQL[Nle]HNLGKHLNS[β3hI]ERVE[1Nal]LRKLLQHVHNF-NH2
B15: [Nle^8, Aib^12,13, β-hIle^18, 1-Nal^23, Leu^27] hPTH (1-34)-NH2 (peptide)
peptide: SVSEIQL[Nle]HNL[Aib][Aib]HLNS[β3hI]ERVE[1Nal]LRKLLQDVHNF-NH2
B16: [Nle^8, β-hIle^18, 1-Nal^23, Leu^27, Lys^33] hPTH (1-34)-NH2 (peptide)
peptide: SVSEIQL[Nle]HNLGKHLNS[β3hI]ERVE[1Nal]LRKLLQDVHKF-NH2
B17: [Nle^8, β-hIle^18, 1-Nal^23, Leu^27, Ser^30] hPTH (1-34)-NH2 (peptide)
peptide: SVSEIQL[Nle]HNLGKHLNS[β3hI]ERVE[1Nal]LRKLLQSVHNF-NH2
B18: [Aib^1, Nle^8, Ser^10, Lys^16, β-hIle^18, 1-Nal^23, Leu^27, Arg^30, Glu^33, Glu^34] hPTH (1-34)-NH2 (peptide)
peptide: [Aib]VSEIQL[Nle]HSLGKHLKS[β3hI]ERVE[1Nal]LRKLLQRVHEE-NH2
B19: [Nle^8, β-hIle^18, 1-Nal^23, Leu^27, Arg^30] hPTH (1-34)-NH2 (peptide)
peptide: SVSEIQL[Nle]HNLGKHLNS[β3hI]ERVE[1Nal]LRKLLQRVHNF-NH2
B20: [Nle^8, Lys^16, β-hIle^18, 1-Nal^23, Leu^27, Arg^30, Glu^33] hPTH (1-34)-NH2 (peptide)
peptide: SVSEIQL[Nle]HNLGKHLKS[β3hI]ERVE[1Nal]LRKLLQRVHEF-NH2
B21: [Nle^8, Ser^10, Lys^16, β-hIle^18, 1-Nal^23, Leu^27, Arg^30] hPTH (1-31)-NH2 (peptide)
peptide: SVSEIQL[Nle]HSLGKHLKS[β3hI]ERVE[1Nal]LRKLLQRV-NH2
B22: [Nle^8, β-hIle^18, 1-Nal^23, Leu^27, Lys^34] hPTH (1-34)-NH2 (peptide)
peptide: SVSEIQL[Nle]HNLGKHLNS[β3hI]ERVE[1Nal]LRKLLQDVHNK-NH2
B23: [Nle^8, Lys^16, β-hIle^18, 1-Nal^23, Leu^27, Arg^30] hPTH (1-34)-NH2 (peptide)
peptide: SVSEIQL[Nle]HNLGKHLKS[β3hI]ERVE[1Nal]LRKLLQRVHNF-NH2
B24: [Aib^1, Nle^8, β-hArg^18, 1-Nal^23, Leu^27] hPTH (1-34)-NH2 (peptide)
peptide: [Aib]VSEIQL[Nle]HNLGKHLNS[β3hR]ERVE[1Nal]LRKLLQDVHNF-NH2
B25: [Nle^8, Aib^13, β-hIle^18, 1-Nal^23, Leu^27] hPTH (1-34)-NH2 (peptide)
peptide: SVSEIQLXHNLGXHLNSXERVEXLRKLLQDVHNF
modifications: Nle^8, Aib^13, β-hIle^18, 1-Nal^23, C-terminal NH2 (amide)
B26: [Aib^1, Nle^8, β-hPhe^18, 1-Nal^23, Leu^27 hPTH (1-34)-NH2 (peptide)
peptide: [Aib]VSEIQL[Nle]HNLGKHLNS[β3hF]ERVE[1Nal]LRKLLQDVHNF-NH2
B27: [Nle^8, Lys^16, β-hIle^18, 1-Nal^23, Leu^27] hPTH (1-34)-NH2 (peptide)
peptide: SVSEIQL[Nle]HNLGKHLKS[β3hI]ERVE[1Nal]LRKLLQDVHNF-NH2

Biological target: human parathyroid hormone receptor 1 (human, UniProt Q03431)
Assay: cell-based or functional assay

Row | Binder | hPTHR-1 EC50 (nM), CRE-luciferase reporter gene assay
1 | B1 | 0.06 nM
2 | B2 | 0.09 nM
3 | B3 | 0.04 nM
4 | B4 | 0.12 nM
5 | B5 | 0.11 nM
6 | B6 | 0.12 nM
7 | B7 | 0.09 nM
8 | B8 | 0.12 nM
9 | B9 | 0.1 nM
10 | B10 | 0.09 nM
11 | B11 | 0.23 nM
12 | B12 | 0.04 nM
13 | B13 | 0.05 nM
14 | B14 | 0.18 nM
15 | B15 | 0.25 nM
16 | B16 | 0.15 nM
17 | B17 | 0.19 nM
18 | B18 | 0.04 nM
19 | B19 | 0.18 nM
20 | B20 | 0.09 nM
21 | B21 | 0.08 nM
22 | B22 | 0.1 nM
23 | B23 | 0.14 nM
24 | B24 | 0.05 nM
25 | B25 | 0.14 nM
26 | B26 | 0.06 nM
27 | B27 | 0.08 nM

Biological target: human parathyroid hormone receptor 2 (human, UniProt P49190)
Assay: cell-based or functional assay

Row | Binder | hPTHR-2 EC50 (nM), luciferase reporter gene assay
28 | B1 | 49 nM
29 | B2 | 6 nM
30 | B3 | 16 nM
31 | B4 | 57 nM
32 | B5 | 10 nM
33 | B6 | 8 nM
34 | B7 | 6 nM
35 | B8 | 41 nM
36 | B9 | 117 nM
37 | B10 | 6 nM
38 | B11 | 13 nM
39 | B12 | 6 nM
40 | B13 | 3 nM
41 | B14 | 13 nM
42 | B15 | 34 nM
43 | B16 | 32 nM
44 | B17 | 19 nM
45 | B18 | 4 nM
46 | B19 | 7 nM
47 | B20 | 14 nM
48 | B21 | 7 nM
49 | B22 | 17 nM
50 | B23 | 14 nM
51 | B24 | 16 nM
52 | B25 | 68 nM
53 | B26 | 5 nM
54 | B27 | 30 nM
